Molecular target: the molecule itself
Assay: dynamic light scattering; 5–83 µM GLP-1(7-37); 25 °C; 25 mM Tris-HCl, 140 mM NaCl, 4.9 mM KCl, 2.5 mM CaCl2, 1 mM MgCl2, pH 7.4; degree of multimerization MWRh/MWm

Question: HAEGTFTSDVSSYLEGQAAKEFIAWLVKGRG (peptide, UniProt P01275 98-128, looked up, also called GLP-1(7-37); GLP-1) [glucagon-like peptide 1, residues 7-37] was tested. Which “stoichiometry N” value did it give?
Answer: > 210

Reference: publication PMC12071944, “Interaction Between Glucagon-like Peptide 1 and Its Analogs with Amyloid-β Peptide Affects Its Fibrillation and Cytotoxicity” (International Journal of Molecular Sciences, 2025)
